Experimental data: PMC4475429 (2015)

Target: PKA RIα (Homo sapiens, UniProt P10644)
Test: fluorescence polarization competition vs RI-STAD-3

Chain of PKA RIα (P10644 whole entry): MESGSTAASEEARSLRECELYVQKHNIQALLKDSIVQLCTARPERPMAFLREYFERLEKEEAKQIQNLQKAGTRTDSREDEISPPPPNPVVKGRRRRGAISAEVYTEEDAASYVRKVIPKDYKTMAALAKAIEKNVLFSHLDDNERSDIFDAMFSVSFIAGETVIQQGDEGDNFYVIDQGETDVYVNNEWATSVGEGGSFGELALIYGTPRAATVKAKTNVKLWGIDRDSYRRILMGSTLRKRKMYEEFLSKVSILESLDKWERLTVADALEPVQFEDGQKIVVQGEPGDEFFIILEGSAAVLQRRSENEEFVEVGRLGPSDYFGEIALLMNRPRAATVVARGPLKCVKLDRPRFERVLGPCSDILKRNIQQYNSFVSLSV

IC50: 1500 nM
B1: Ht31 AKB (peptide)
chain: WKNVLQGGESTKERFENSNIGTA
